Values of other authors as cited in paper PMC6165679.

What was measured:
[1] = molecular target: APJ receptor (Homo sapiens) (UniProt P35414)
[2] = molecular target: APJ receptor (Homo sapiens) (UniProt P35414); assay: competition binding

Sequence of UniProt P35414 (P35414 whole entry): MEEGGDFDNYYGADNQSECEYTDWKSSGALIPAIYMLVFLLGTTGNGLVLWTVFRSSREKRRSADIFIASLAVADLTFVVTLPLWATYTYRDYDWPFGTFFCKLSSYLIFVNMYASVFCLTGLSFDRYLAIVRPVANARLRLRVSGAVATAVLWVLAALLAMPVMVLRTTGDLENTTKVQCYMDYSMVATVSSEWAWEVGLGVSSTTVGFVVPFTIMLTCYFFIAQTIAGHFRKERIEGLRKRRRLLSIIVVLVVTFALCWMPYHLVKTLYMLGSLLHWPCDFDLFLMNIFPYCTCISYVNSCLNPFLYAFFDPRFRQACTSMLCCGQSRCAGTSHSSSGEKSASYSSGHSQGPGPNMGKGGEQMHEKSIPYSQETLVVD

cyclo(1–6)CRPRLC-KH-cyclo(9–14)CRPRLC
Ki [1]: 82 nM
Kd [2]: 3200 nM
